Source: paper PMC3835915, “Diversification of Fungal Specific Class A Glutathione Transferases in Saprotrophic Fungi” (PLoS ONE, 2013)

Substrate: S=C=NCCc1ccccc1
Experiment: purified protein
Format: biochemical, Phanerodontia chrysosporium
Conditions: 5 mM GSH, pH 6.5, 2% acetonitrile

B1: PcGSTFuA1 (Phanerodontia chrysosporium) (protein)
chain: MAQPIVFYDIPSNERIKHSPWSPNTWKIRYALNYKGLKYKTEWVEYPDIAGVVQKLGGKPTEKTPDGRDHYTLPVIYDPNTKKVVEDSAAIAKYLDETYPDTPKLFPAGTDAFQAAFLDFAWPVLGFPVFMLVILDTANSLLPRSHDYFRSTREQKFGKKLEELATEEEWAKVEAGLAKLKGYLDANGKGNDLLLMGAQGGITYSDIQIASFFVWAKIIWGEGSEKWKRLISLHDGKWAQFYAQFTKFEQVDV
notes: full length, untagged, pET-3d, E. coli BL21(DE3) pSBET; Ala inserted after Met1; dimer; primers encode N-term MAQPIVF, C-term EQVDV
Km: 119.0 ± 14.4 µM
kcat: 8.515 ± 0.267 s⁻¹
